T1: Myo5 SH3 (MYO5_YEAST), Q04439
T1 chain: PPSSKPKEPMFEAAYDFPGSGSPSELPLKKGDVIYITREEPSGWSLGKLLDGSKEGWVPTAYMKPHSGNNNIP

T2: Abp1 SH3 (ABP1_YEAST), P15891
T2 chain: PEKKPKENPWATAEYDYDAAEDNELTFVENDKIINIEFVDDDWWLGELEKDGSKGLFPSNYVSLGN

B1: YCL029C 108-121 (peptide)
chain: QFSPMDDPKSPTPM
B2: YER169W 383-396 (peptide)
chain: PLNQLPNPAMPLLH
B3: YGR094W 179-192 (peptide)
chain: PEGVFSIPAPPPNV
B4: YGR083C 349-362 (peptide)
chain: QEISLIDPSTPDKA
B5: YCR033W 1026-1039 (peptide)
chain: PLTTLPPPRLPSIQ
B6: YAL023C 524-537 (peptide)
chain: NIETHENERLPPRP
B7: YPL095C 323-335 (peptide)
chain: NFEVSHKPTVEKP
B8: YIL151C 523-536 (peptide)
chain: QLIGFGNPKNPFAL
B9: YHR132C 397-409 (peptide)
chain: NHGFLLPPENIKP
B10: YBR172C 147-160 (peptide)
chain: PFSSMKEPFIPQSS
B11: YNL271C 1278-1290 (peptide)
chain: PAPPPPPPPPPPP
B12: YDR363W 94-106 (peptide)
chain: NIEDITEPKPDKP
B13: YNL206C 122-135 (peptide)
chain: NIKMASFLPVPEKP
B14: YLR285W 17-30 (peptide)
chain: PEDFLPPPPKPHFA
B15: YMR089C 153-165 (peptide)
chain: NIPPPPPPPPPKP
B16: YDR171W 234-247 (peptide)
chain: PETRMDLPFSPEVN
B17: YNL271C 1240-1251 (peptide)
chain: PPPPPPPPPVPA
B18: YIL005W 29-42 (peptide)
chain: PPEGFPEPLNPTNF
B19: YHR135C 370-383 (peptide)
chain: NLHGYGHPNPPNEK
B20: YKL139W 28-41 (peptide)
chain: NPQSLARPPPPKRI
B21: YJL214W 46-59 (peptide)
chain: NGEEAEEVVVPEKP
B22: YGL160W 297-310 (peptide)
chain: NPLYWLLPSHPYTI
B23: YIL132C 50-63 (peptide)
chain: QFQKLVPPTLPENV
B24: YOR149C 314-327 (peptide)
chain: QELRFLVPLVPLLV
B25: YBR289W 73-86 (peptide)
chain: PPQTHQSPPPPPQQ
B26: YOR037W 215-228 (peptide)
chain: PFIDYEFPHLPNEL
B27: YBR238C 623-636 (peptide)
chain: PEHLFNNPQNPMDF
B28: YGL014W 93-106 (peptide)
chain: PPPDFNDPTAPLSS
B29: YKR055W 169-182 (peptide)
chain: PEVKHFSPSTPIML
B30: YKL129C 1112-1125 (peptide)
chain: PPPPMGQPKDPKFE
B31: YAL017W 90-103 (peptide)
chain: PPLDFEQPRLPSTA
B32: YLR229C 99-112 (peptide)
chain: PEVHHHSPGVPSLV
B33: YAR018C 257-270 (peptide)
chain: PEVLMDQPYSPLSD
B34: YGL156W 1061-1073 (peptide)
chain: NHAINRIPIKLRP
B35: YBR279W 23-36 (peptide)
chain: PPKLLVYPESPETN
B36: YLR337C 659-672 (peptide)
chain: PLPTFSAPSLPQQS
B37: YBR212W 12-25 (peptide)
chain: QENPYIIPLPPSST
B38: YBL035C 102-115 (peptide)
chain: PLFGLSIPKTPTLK
B39: YLR337C 421-434 (peptide)
chain: PLAPLPPPPPPSVA
B40: YIL137C 4-17 (peptide)
chain: NLLSLENPVVPSHY
B41: YLL007C 14-26 (peptide)
chain: NIKVLLNPKLGKP
B42: YLR357W 573-586 (peptide)
chain: PEPTMGSPDAPPLV
B43: YOR181W 270-283 (peptide)
chain: NPFPFPIPEIPSTQ
B44: YNL134C 307-320 (peptide)
chain: PFGTFTLPADPEYK
B45: YLL018C 454-467 (peptide)
chain: PFYTMPDPANPKYS
B46: YER033C 119-132 (peptide)
chain: PPPPLPPPLFPSSS
B47: YOR260W 14-27 (peptide)
chain: NLAPFTQPDFPFQT
B48: YOR197W 87-100 (peptide)
chain: PPMAYNRPVYPPPQ
B49: YLL043W 210-222 (peptide)
chain: NESPRNVPIMVKP
B50: YLR399C 121-134 (peptide)
chain: QELPMEVPKEPAPA
B51: YKR077W 284-297 (peptide)
chain: QASMLRRPSLPHID
B52: YHR015W 379-391 (peptide)
chain: NHTIWVGPGKDKP
B53: YLR356W 137-149 (peptide)
chain: NHASENTPRDGKP
B54: YOL152W 549-562 (peptide)
chain: NEYKGLITIIPSKP
B55: YNL288W 26-39 (peptide)
chain: NPGSMSMPGVPTSM
B56: YBR286W 82-94 (peptide)
chain: NIPKPHIPYFMKP
B57: YJL046W 318-331 (peptide)
chain: QFSGLLEPSLPNNM

Legend:
[1] = target: T1, Myo5 SH3 (MYO5_YEAST), Q04439; assay: SPOT array
[2] = target: T2, Abp1 SH3 (ABP1_YEAST), P15891; assay: SPOT array

Binder | normalised SPOT signal, Boehringer light units (BLU); mean over the file's lines of this peptide [1] | normalised SPOT signal, Boehringer light units (BLU); mean over the file's lines of this peptide [2]
B1 | 121 | –
B2 | 104 | –
B3 | 82.5 | –
B4 | 155 | –
B5 | 2790 | –
B6 | – | 117
B7 | – | 185
B8 | 46.1 | –
B9 | – | 6.9
B10 | 411 | –
B11 | 53300 | –
B12 | – | 75.1
B13 | – | 387
B14 | 126 | –
B15 | – | 38.2
B16 | 130 | –
B17 | 95700 | –
B18 | 86 | –
B19 | 217 | –

Binder | normalised SPOT signal, Boehringer light units (BLU); mean over the file's lines of this peptide [1] | normalised SPOT signal, Boehringer light units (BLU); mean over the file's lines of this peptide [2]
B20 | 248 | –
B21 | – | 539
B22 | 165 | –
B23 | 154 | –
B24 | 119 | –
B25 | 222 | –
B26 | 98.9 | –
B27 | 157 | –
B28 | 153 | –
B29 | 93.7 | –
B30 | 248 | –
B31 | 192 | –
B32 | 331 | –
B33 | 78.7 | –
B34 | – | 3450
B35 | 91.3 | –
B36 | 47000 | –
B37 | 240 | –
B38 | 122 | –

Binder | normalised SPOT signal, Boehringer light units (BLU); mean over the file's lines of this peptide [1] | normalised SPOT signal, Boehringer light units (BLU); mean over the file's lines of this peptide [2]
B39 | 4750 | –
B40 | 75.6 | –
B41 | – | 93.7
B42 | 107 | –
B43 | 86.5 | –
B44 | 172 | –
B45 | 145 | –
B46 | 38500 | –
B47 | 81.4 | –
B48 | 6720 | –
B49 | – | 217
B50 | 139 | –
B51 | 1100 | –
B52 | – | 285
B53 | – | 97
B54 | – | 77.6
B55 | 190 | –
B56 | – | 1120
B57 | 84.4 | –

Reference: article PMC314469, “Protein Interaction Networks by Proteome Peptide Scanning” (PLoS Biology, 2004)
